# Assay results reported in patent publication US7541141B2, “Method of using estrogen-related receptor alpha (ERRα) status to determine prognosis, treatment strategy and predisposition to breast cancer, and method of using ERRα as a therapeutic target for the treatment of breast cancer” (Wisconsin Alumni Research Foundation, priority 1997, dated 2009).
# Positions count from the first letter of the chain named. Names and notes keep the numbering of the source.
# T1: ERRα (Homo sapiens, UniProt P11474)
# T1 sequence (P11474 1-423): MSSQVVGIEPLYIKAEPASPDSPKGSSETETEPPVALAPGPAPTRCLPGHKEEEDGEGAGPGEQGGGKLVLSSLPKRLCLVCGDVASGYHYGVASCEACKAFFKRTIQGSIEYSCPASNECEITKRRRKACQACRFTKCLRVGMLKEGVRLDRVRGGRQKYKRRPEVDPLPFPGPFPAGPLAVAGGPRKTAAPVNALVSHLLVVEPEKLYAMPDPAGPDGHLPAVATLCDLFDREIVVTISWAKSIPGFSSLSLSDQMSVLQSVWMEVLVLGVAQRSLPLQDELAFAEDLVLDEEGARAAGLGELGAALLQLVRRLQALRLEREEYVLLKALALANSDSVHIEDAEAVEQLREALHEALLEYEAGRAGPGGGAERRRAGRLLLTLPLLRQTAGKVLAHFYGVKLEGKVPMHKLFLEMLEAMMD
# B1: ERRα: wild-type human ERRα1 overexpressed from plasmid pcDNA3.1-hERRα1 (protein)
# chain: T1 sequence (P11474 1-423)
# B2: ERRα1P-box: ERRα1 variant with E97G/A98S/A101V in the P-box, unable to bind DNA (protein)
# chain: T1 sequence (P11474 1-423) with E97G, A98S, A101V
# B3: ERRα1413A/418A: ERRα1 variant with alanine in place of leucine at amino acids 413 and 418 (NR box) (protein)
# chain: T1 sequence (P11474 1-423) with L413A, L418A
# What was measured:
# [1] = biological target: ERRγ (Homo sapiens, UniProt P62508); settings: cell-based assays; cited from earlier work
# [2] = tested on: ERE-dependent transcription in HeLa cells; assay: p3xERE-TK-luc luciferase reporter, transient transfection; format: cell-based, human; settings: whole FBS
# Description: Transient Transfections and Luciferase Assays: To assess the role ERRα plays in regulating transcription of an ERE-containing promoter, MCF-7 or HeLa cells grown in 12-well tissue culture plates were co-transfected in parallel with 0.5 μg of pTK-luc versus p3xERE-TK-luc along with the indicated amounts of the empty cloning vector pcDNA3.1, the ERRα1 expression plasmid pcDNA3.1-hERRα1, or mutant variants thereof. Transfections were performed with the aid of the TransIT LT1 transfection reagent (PanVera, Madison, Wis.) as previously described (35). To examine the effects of ER ligands, […] (E2) (Sigma) or the pure anti-estrogen ICI-182,780 (Astra Zeneca, London, UK) dissolved in ethanol and diluted in medium to obtain the indicated concentrations. Cells were harvested 48 h post-transfection, and lysates were assayed for luciferase activity normalized to protein concentration as previously described (36).
# ERRα Activates Transcription in HeLa Cells: Our finding that ERRα represses transcription from an ERE-controlled promoter was somewhat surprising since most reports in the literature conclude that ERR family members function as transcriptional activators of ERE-dependent transcription (17-31). […]
# [3] = tested on: ERE-dependent transcription in MCF-7 cells; assay: as above; format: cell-based, human
# Description: (§1) Transient Transfections and Luciferase Assays: To assess the role ERRα plays in regulating transcription of an ERE-containing promoter, MCF-7 or HeLa cells grown in 12-well tissue culture plates were co-transfected in parallel with 0.5 μg of pTK-luc versus p3xERE-TK-luc along with the indicated amounts of the empty cloning vector pcDNA3.1, the ERRα1 expression plasmid pcDNA3.1-hERRα1, or mutant variants thereof. Transfections were performed with the aid of the TransIT LT1 transfection reagent (PanVera, Madison, Wis.) as previously described (35). To examine the effects of ER ligands, cells were maintained in stripped medium for 48 h before transfection and the addition of 17β-estradiol (E2) (Sigma) or the pure anti-estrogen ICI-182,780 (Astra Zeneca, London, UK) dissolved in ethanol and diluted in medium to obtain the indicated concentrations. Cells were harvested 48 h post-transfection, and lysates were assayed for luciferase activity normalized to protein concentration as previously described (36).
# ERRα Represses Transcription in MCF-7 Cells: Because ERRα can interfere with the binding of ERα to this ERE, might it affect estrogen-responsive transcription? To answer this question, we co-transfected ERα-positive mammary MCF-7 cells in parallel with p3xERE-TK-luc, a reporter plasmid containing three tandem copies of this ERE (FIG. 14A) or the ERE-negative control plasmid, pTK-luc, together with 0.12 or 0.25 μg of the ERRα1 expression plasmid, pcDNA3.1-hERRα1, or the empty parental expression plasmid, pcDNA3.1. After incubation for 48 h in medium containing whole FBS, the cells were harvested and assayed for luciferase activity. The presence of the EREs conferred an about 150-fold increase in transcriptional activity above the level observed in the cells transfected with the ERE-negative reporter plasmid (FIG. 14B). […] Thus, ERRα inhibits the estrogen-responsive activation of transcription from this ERE-containing promoter in this ER-positive MCF-7 cell line.
# ERRα Modulates Estrogen-responsiveness in MCF-7 Cells: To directly examine the effect of ERRα on the response to estrogen, MCF-7 cells were cultured in medium containing estrogen-free charcoal-stripped FBS and cotransfected as described above but in the absence or presence of E2. […] Once again, overexpression of ERRα repressed ERE-dependent transcription approximately 3-fold while having little if any effect on transcription of the control reporter (FIG. 15A).
# [4] = biological target: T1, ERRα; settings: cited from earlier work
# [5] = tested on: ERE-independent TK-luc transcription in MCF-7 cells; assay: pTK-luc ERE-negative control luciferase reporter, transient transfection; format: cell-based, human; settings: whole FBS, 48 h
# Description: as §1
# [6] = 0.12 or 0.25 μg expression plasmid, whole FBS, 48 h
# ERRγ, sequence (P62508 whole entry): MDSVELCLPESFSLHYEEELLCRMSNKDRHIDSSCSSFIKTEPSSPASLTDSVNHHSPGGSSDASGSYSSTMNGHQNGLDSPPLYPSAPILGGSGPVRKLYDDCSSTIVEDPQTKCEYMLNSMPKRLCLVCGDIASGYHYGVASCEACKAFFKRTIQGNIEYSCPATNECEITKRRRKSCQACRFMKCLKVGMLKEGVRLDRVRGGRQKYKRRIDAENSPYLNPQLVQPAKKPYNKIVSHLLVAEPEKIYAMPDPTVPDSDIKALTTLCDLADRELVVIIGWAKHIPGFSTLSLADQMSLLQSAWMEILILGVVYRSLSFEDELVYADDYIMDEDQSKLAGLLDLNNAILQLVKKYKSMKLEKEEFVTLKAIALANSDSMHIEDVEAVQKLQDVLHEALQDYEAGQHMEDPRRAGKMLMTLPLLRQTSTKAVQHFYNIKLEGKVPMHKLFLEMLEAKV
molecule,measurement,setting,value
4-hydroxytamoxifen,Effect on ERRγ (literature),[1],selectively antagonizes ERRγ
"C[C@]12CC[C@@H]3c4ccc(O)cc4C[C@@H](CCCCCCCCC[S+]([O-])CCCC(F)(F)C(F)(F)F)[C@H]3[C@@H]1CC[C@@H]2O (some centres unmarked) [ICI-182,780, reference compound]",Effect of anti-estrogen on ERE-dependent activity,[2],completely insensitive
same,Effect of anti-estrogen on ERE-dependent activity,"[3]; 1×10^−6 M, charcoal-stripped FBS plus 1×10^−8 M E2",extremely sensitive
same,Effect of anti-estrogen on E2 induction of ERE reporter,"[3]; 1×10^−6 M, charcoal-stripped FBS plus 1×10^−10 M E2",completely eliminated
same,Effect of anti-estrogen on ERE-dependent activity,"[3]; 1×10^−6 M, charcoal-stripped FBS, no exogenous E2",largely ablated
same,Effect of anti-estrogen on ERE-dependent activity,"[3]; 1×10^−6 M, medium with whole FBS",extremely sensitive
ClC1=C(Cl)C2(Cl)C3C(Cl)C(Cl)CC3C1(Cl)C2(Cl)Cl (centres unmarked) [chlordane],Effect on ERRα activity (literature),[4],decrease the activity of ERRα
CC1(C)C(C(Cl)Cl)C2(Cl)C(Cl)C(Cl)C1(Cl)C2(Cl)Cl (centres unmarked) [toxaphene],Effect on ERRα activity (literature),[4],decrease the activity of ERRα
B1,Activation of transcription from p3xERE-TK-luc by overexpression,[2]; 48 h,2.5 fold
same,Repression of ERE-dependent transcription by overexpression,[3]; [6],3-4 fold
same,Inhibition of E2-mediated activation of transcription by overexpression,[3]; charcoal-stripped FBS plus 1×10^−8 M E2,no longer inhibited
same,Inhibition of E2-mediated activation of transcription by overexpression,[3]; charcoal-stripped FBS plus 1×10^−10 M E2,3-5 fold
same,Repression of ERE-dependent transcription by overexpression,"[3]; charcoal-stripped FBS, no exogenous E2",approximately 3 fold
B2,Induction of ERE-dependent transcription by overexpression,"[3]; whole FBS, 48 h",2-3 fold
B3,Up-regulation of ERE-independent TK-luc transcription by overexpression,[5],approximately 2 fold
same,Repression of ERE-dependent transcription by overexpression,[3]; [6],5-8 fold
same,Repressive effect on ERE-dependent transcription normalized to the control,[3]; normalized to pTK-luc control,10-16 fold
